# Experimental data published in paper PMC12802350, “Opposite effects of spermidine and GC7 in cell culture are dictated by distinct molecular targets” (Biochemical Journal, 2025).
# B1: bovine serum amine oxidase (BSAO) (Bos taurus) (protein)
# chain: REEGGVGSEEGVGKQCHPSLPPRCPSRSPSDQPWTHPDQSQLFADLSREELTTVMSFLTQQLGPDLVDAAQARPSDNCVFSVELQLPPKAAALAHLDRGSPPPAREALAIVFFGGQPQPNVTELVVGPLPQPSYMRDVTVERHGGPLPYYRRPVLLREYLDIDQMIFNRELPQAAGVLHHCCSYKQGGQKLLTMNSAPRGVQSGDRSTWFGIYYNITKGGPYLHPVGLELLVDHKALDPADWTVQKVFFQGRYYENLAQLEEQFEAGQVNVVVIPDDGTGGFWSLKSQVPPGPTPPLQFHPQGPRFSVQGNRVASSLWTFSFGLGAFSGPRVFDVRFQGERLAYEISLQEAGAVYGGNTPAAMLTRYMDSGFGMGYFATPLIRGVDCPYLATYMDWHFVVESQTPKTLHDAFCVFEQNKGLPLRRHHSDFLSHYFGGVAQTVLVFRSVSTMLNYDYVWDMVFYPNGAIEVKLHATGYISSAFLFGAARRYGNQVGEHTLGPVHTHSAHYKVDLDVGGLENWVWAEDMAFVPTAIPWSPEHQIQRLQVTRKQLETEEQAAFPLGGASPRYLYLASKQSNKWGHPRGYRIQTVSFAGGPMPQNSPMERAFSWGRYQLAITQRKETEPSSSSVFNQNDPWTPTVDFSDFINNETIAGKDLVAWVTAGFLHIPHAEDIPNTVTVGNGVGFFLRPYNFFDQEPSMDSADSIYFREGQDAGSCEINPLACLPQAATCAPDLPVFSHGGYPEY
# notes: BSAO purified from bovine blood
# Substrate: NCCCCNCCCN
# Assay: DCHBS/AAP peroxide-coupled kinetic assay; Km from Michaelis–Menten/inhibition fit
# Type: biochemical, Bos taurus
# Conditions: TPQ (trihydroxyphenylalanine quinone), copper
protein,measurement,value
B1,Km,173.8 µM
